In experiment [1] the target is T1, human FGFR3b expressed with a C-terminal myc-myc-hexahistidine tag (hFGFR3b.mmH) (human).
T1 construct: also called REGN3152; monomeric human FGFR3b
T1 chain: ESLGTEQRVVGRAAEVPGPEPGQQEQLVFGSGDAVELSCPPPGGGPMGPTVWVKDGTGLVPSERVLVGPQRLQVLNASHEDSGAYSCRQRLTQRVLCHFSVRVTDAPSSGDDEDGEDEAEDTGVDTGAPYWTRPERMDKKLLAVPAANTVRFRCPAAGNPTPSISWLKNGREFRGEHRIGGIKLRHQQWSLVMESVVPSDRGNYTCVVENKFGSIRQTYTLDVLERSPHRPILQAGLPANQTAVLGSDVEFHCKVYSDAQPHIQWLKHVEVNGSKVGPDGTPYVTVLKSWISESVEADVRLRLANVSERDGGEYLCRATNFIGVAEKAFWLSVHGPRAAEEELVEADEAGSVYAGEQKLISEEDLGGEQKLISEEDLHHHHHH
In words: SPR Biacore, mAb captured on anti-hFc, 25C. The procedure: (§1) The CM5 Biacore sensor surface was derivatized by amine coupling with a monoclonal mouse anti-human Fc monoclonal antibody (REGN2567). […] Antibody-reagent association was monitored for 5 minutes while dissociation in HBS-EP running buffer was monitored for 10 minutes. At the end of each cycle, the anti-FGFR3 antibody capture surface was regenerated using a 10 sec injection of 20 mM phosphoric acid. All binding kinetics experiments were performed at 25° C.
(§2) The specific SPR-Biacore sensorgrams were obtained by a double referencing procedure. The double referencing was performed by first subtracting the signal of each injection over a reference surface (anti-hFc) from the signal over the experimental surface (anti-hFc-captured anti-FGFR3 antibodies) thereby removing contributions from refractive index changes. In addition, running buffer injections were performed to allow subtraction of the signal changes resulting from the dissociation of captured antibodies from the coupled anti-hFc surface. Kinetic association (kₐ) and dissociation (kd) rate constants were determined by fitting the real-time sensorgrams to a 1:1 binding model using Scrubber v2.0c curve fitting software.
On the technique in general: SPR reads the build-up and loss of mass on a sensor chip optically.

For experiment [2], the target named is T2, cynomolgus FGFR3b expressed with a C-terminal myc-myc-hexahistidine tag (mfFGFR3b.mmH) (cynomolgus).
T2 construct: also called REGN3521; mf FGFR3b ecto (R357G)(E23-G377;R357G).mmH
T2 chain: T1 chain with A13V, P17S, G22S, T57A, R94L, R171K
In words: SPR Biacore, mAb captured on anti-hFc, 25C. The procedure:
as §1, §2

For experiment [3], the target named is T3, murine FGFR3b expressed with a C-terminal myc-myc-hexahistidine tag (mFGFR3b.mmH) (murine).
T3 construct: also called REGN3215; monomeric murine FGFR3b
T3 chain: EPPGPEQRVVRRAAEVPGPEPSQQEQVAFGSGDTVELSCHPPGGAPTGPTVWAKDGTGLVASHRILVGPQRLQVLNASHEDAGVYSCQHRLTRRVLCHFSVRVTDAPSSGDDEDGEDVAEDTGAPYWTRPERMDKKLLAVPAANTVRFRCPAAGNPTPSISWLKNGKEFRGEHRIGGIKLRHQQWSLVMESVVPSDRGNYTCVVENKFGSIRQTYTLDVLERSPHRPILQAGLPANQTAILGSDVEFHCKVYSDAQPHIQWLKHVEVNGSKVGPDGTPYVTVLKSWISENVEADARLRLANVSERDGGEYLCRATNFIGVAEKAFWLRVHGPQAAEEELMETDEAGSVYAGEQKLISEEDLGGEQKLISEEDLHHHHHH
In words: SPR Biacore, mAb captured on anti-hFc, 25C. The procedure:
as §1, §2

The target of experiment [4] is T4, human FGFR3c expressed with a C-terminal myc-myc-hexahistidine tag (hFGFR3c.mmH) (human, UniProt P22607 23-375).
T4 construct: also called REGN3155; monomeric human FGFR3c
In words: SPR Biacore, mAb captured on anti-hFc, 25C. The procedure:
as §1, §2

For experiment [5], the target named is T5, human FGFR3b expressed with a C-terminal murine Fc tag (hFGFR3b.mFc) (human).
T5 construct: called dimeric; also called REGN3153; dimeric human FGFR3b
T5 chain: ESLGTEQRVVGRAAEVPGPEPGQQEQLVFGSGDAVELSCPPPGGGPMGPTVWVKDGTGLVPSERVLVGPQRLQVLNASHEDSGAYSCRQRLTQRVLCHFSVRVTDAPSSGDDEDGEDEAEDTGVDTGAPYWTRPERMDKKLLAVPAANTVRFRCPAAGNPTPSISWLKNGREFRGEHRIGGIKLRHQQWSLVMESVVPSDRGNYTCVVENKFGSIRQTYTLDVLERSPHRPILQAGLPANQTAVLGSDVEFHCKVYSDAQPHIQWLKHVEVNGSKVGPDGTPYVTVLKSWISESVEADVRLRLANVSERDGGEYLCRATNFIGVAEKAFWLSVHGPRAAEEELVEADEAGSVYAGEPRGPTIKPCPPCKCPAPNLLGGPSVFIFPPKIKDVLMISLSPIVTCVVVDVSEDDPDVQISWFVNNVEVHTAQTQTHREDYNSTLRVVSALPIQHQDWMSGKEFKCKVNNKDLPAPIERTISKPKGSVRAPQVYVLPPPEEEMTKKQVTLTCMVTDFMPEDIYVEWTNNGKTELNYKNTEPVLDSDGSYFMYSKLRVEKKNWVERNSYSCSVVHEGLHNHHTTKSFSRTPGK
In words: SPR Biacore, mAb captured on anti-hFc, 25C. The procedure:
as §1, §2

Experiment [6] addresses T3, murine FGFR3b expressed with a …. In words: SPR Biacore, mAb captured on anti-hFc, 25C; row marked NB. The procedure:
as §1, §2

The target in experiment [7] is full length human FGFR3b on BaF3 cells (BAF3/FGFR3b, ACL11991) (human, UniProt P22607 23-808). As to the kind of experiment: cell-based or functional assay.
The target in experiment [8] is full length human FGFR3b S249C on BaF3 cells (BAF3/FGFR3b_S249C, ACL11986) (human, UniProt P22607 23-808). In words: cell-based or functional assay.

Where a chain is given by its changes, count along the chain named.

B1: H4H30117P2 (antibody, human IgG4 S228P, kappa, V domains shown)
VH: QVQLVQSGAEVKKPGSSVKVSCKASGDTFSNYVIGWVRQAPGQGLEWMGGIIPIFGTTNYAQQFQGRVTITTDESTSTAYMELSSLRSEDTAVYYCARDGNYGDYFDYWGQGTLVTVSS
VL: not shown
Regarding B1, in experiment [1], the “90 nM hFGFR3b.mmH Bind (RU)” value is 178 RU, the koff (usually a measure of how fast the partners let go of each other) is 0.0063 s⁻¹, the kon (usually the second-order rate constant of association) was 656000 M⁻¹ s⁻¹ and the t½ (usually the time in which the quantity being followed falls by half) was 1.8 min. In experiment [2], the “90 nM mfFGFR3b.mmH Bind (RU)” value was 148 RU, the Kd (usually the equilibrium constant for the complex coming apart) came to 15.8 nM, the koff amounted to 0.0087 s⁻¹ and the kon amounted to 550000 M⁻¹ s⁻¹. Further, the “t½” value in experiment [2] was 1.3 min. The binding result in experiment [3] is listed as “no binding (tested: 90 nM)”. Further, in experiment [4], the “90 nM hFGFR3c.mmH Bind (RU)” value came out at 166 RU, the koff stood at 0.00732 s⁻¹, the kon worked out at 595000 M⁻¹ s⁻¹ and the “t½” value worked out at 1.6 min. Also, in experiment [5], the “30 nM hFGFR3b.mFc Bind (RU)” value was 337 RU, the koff came to 0.000133 s⁻¹, the kon is 787000 M⁻¹ s⁻¹ and the “t½” value came to 87 min. In experiment [6], the “90 nM mFGFR3b.mmH Bind (RU)” value was found to be 0.9 RU.

B2: H4H30045P (antibody, human IgG4 S228P, kappa, V domains shown)
VH: QVQLVQSGAEVKKPGASVKVSCKTSGYRFVNYGFSWVRQAPGQGLEWMGWISPYNGNTNYIQNLQDRITMTTDTSTNTAYMELTNLRSDDTAVYYCATLTGVHFDYWGQGTLVTVSS
VL: AIQMTQSPSSLSASVGDRVTITCRASQGIRNDLGWYQQKPGKAPNLLIFETSRLQSGVPSRFSGSGSGTDFTLTINSLQPEDFATYYCLQDYNYPWTFGQGTKVEIKR
notes: HCVR 179, LCVR 187
In the case of B2, in experiment [1], the “90 nM hFGFR3b.mmH Bind (RU)” value amounted to 124 RU, the Kd was determined as 16.2 nM, the koff amounted to 0.00624 s⁻¹ and the kon was found to be 385000 M⁻¹ s⁻¹. In addition, the “t½” value in experiment [1] was 1.9 min. Further, in experiment [2], the “90 nM mfFGFR3b.mmH Bind (RU)” value is 71.9 RU, the Kd is 20.6 nM, the koff came out at 0.00882 s⁻¹ and the kon was found to be 429000 M⁻¹ s⁻¹. Besides, in experiment [2], the “t½” value is 1.3 min. For the same molecule, the binding result in experiment [3] was “no binding (tested: 90 nM)”. Moreover, in experiment [4], the “90 nM hFGFR3c.mmH Bind (RU)” value worked out at 77.1 RU, the Kd stood at 19.6 nM, the koff is 0.00746 s⁻¹ and the kon amounted to 381000 M⁻¹ s⁻¹. Further, the “t½” value in experiment [4] worked out at 1.5 min. For the same molecule, in experiment [5], the “30 nM hFGFR3b.mFc Bind (RU)” value is 266 RU, the equilibrium dissociation constant (Kd) was found to be 0.581 nM, the koff amounted to 0.000161 s⁻¹ and the kon was 277000 M⁻¹ s⁻¹. Further, the “t½” value in experiment [5] was 71.8 min. In addition, in experiment [6], the “90 nM mFGFR3b.mmH Bind (RU)” value came out at 2.4 RU.

B3: H4H30061P (antibody, human IgG4 S228P, kappa, V domains shown)
VH: EVQLVESGGGLAQPGGSLKLSCEASGFTFSDSAMHWVRQASGKGLEWVGRIRSKANSYATGYAASVKGRFTISRDDSKNMAFLEMNSLKTEDTAVYYCLRQTYGDPWGQGTLVTVSS
VL: DVVMTQSPLSLSVTLGQPASISCRSSLSLVYSDGNNYLNWFQQRPGQSPRRLLYKVFNRDSGVPDRFSGSGSGTDFTLKISRVEAEDVGVYYCMQGTHWPWTFGQGTKVEIKR
As for B3, in experiment [1], the “90 nM hFGFR3b.mmH Bind (RU)” value was found to be 249 RU, the Kd was found to be 0.506 nM, the koff is 8.74e-05 s⁻¹ and the kon was 173000 M⁻¹ s⁻¹. For the same molecule, the “t½” value in experiment [1] came to 132 min. In experiment [2], the “90 nM mfFGFR3b.mmH Bind (RU)” value is 197 RU, the Kd was found to be 0.65 nM, the koff stood at 9.83e-05 s⁻¹ and the kon amounted to 151000 M⁻¹ s⁻¹. In addition, the “t½” value in experiment [2] amounted to 118 min. Further, in experiment [4], the “90 nM hFGFR3c.mmH Bind (RU)” value stood at 204 RU, the Kd is 0.526 nM, the koff stood at 7.92e-05 s⁻¹ and the kon is 151000 M⁻¹ s⁻¹. Also, the “t½” value in experiment [4] came out at 146 min. Moreover, in experiment [5], the “30 nM hFGFR3b.mFc Bind (RU)” value was 260 RU, the Kd was at most 0.0433 nM, the koff was at most 1e-05 s⁻¹ and the kon came to 231000 M⁻¹ s⁻¹. Moreover, the “t½” value in experiment [5] was at least 1160 min. Besides, the “90 nM mFGFR3b.mmH Bind (RU)” value in experiment [6] is -8.5 RU.

B4: H4H30102P2 (antibody, human IgG4 S228P, kappa, V domains shown)
VH: EVQLVESGGDLVQPGGSLRLSCAASGFTFSSYEMNWVRQAPGKGLEWVSYISNSGSTIYYADSVKGRFTISRDNAETSLYLQMNSLRAEDTAVYYCAREGWGAYCAGDCYSGFDIWGQGTMVTVSS
VL: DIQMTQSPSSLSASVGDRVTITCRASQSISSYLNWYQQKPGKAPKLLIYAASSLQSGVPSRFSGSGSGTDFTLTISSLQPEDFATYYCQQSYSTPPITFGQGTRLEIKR
In the case of B4, in experiment [7], the “IC50 [M], BaF3 proliferation (CellTiter-Glo) with 1 nM FGF1 + 5 ug/ml heparin” value is 1.86e-08 M and the “Max Blocking (%), BaF3 proliferation (CellTiter-Glo) with 1 nM FGF1 + 5 ug/ml heparin” value came out at 41.1%. The “Max Blocking (%), BaF3 proliferation (CellTiter-Glo) with 1 nM FGF1 + 5 ug/ml heparin” value in experiment [8] came to 34.5%. In experiment [2], the “90 nM mfFGFR3b.mmH Bind (RU)” value was found to be 126 RU, the Kd is 1.75 nM, the koff was found to be 0.00023 s⁻¹ and the kon was 131000 M⁻¹ s⁻¹. Besides, the “t½” value in experiment [2] was determined as 50.2 min.

Values taken from patent US20240158515A1 (Regeneron, published 2024).
